Changes are numbered by the printed parent chain.
Assays:
Experiment in all cases: co-expression in E. coli (pETDuet-1, N-6 His on the -1 fragment, -2 fragment untagged); Ni-NTA purification
[1] = target: T1, IPD082Hd-2, C-terminal fragment of homolog IPD082Hd (Pseudomonas corrugata)
T1 chain: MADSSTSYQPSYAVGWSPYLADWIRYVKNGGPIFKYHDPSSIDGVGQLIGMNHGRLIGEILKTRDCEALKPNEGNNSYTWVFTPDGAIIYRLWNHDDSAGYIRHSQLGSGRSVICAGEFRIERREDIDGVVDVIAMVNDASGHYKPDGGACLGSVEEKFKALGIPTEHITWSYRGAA
Source text: (§1) The IPD082Aa gene (SEQ ID NO: 1) was amplified by PCR using genomic DNA isolated from strain SSP446D7 using forward primer […] (SEQ ID NO: 59) and reverse primer […] (SEQ ID NO: 60). The resulting PCR product was DNA sequence verified and subcloned into pET16B vector with an N-terminal His-10 tag, and into pET24a vector with C-terminal His-10 tag or without tag. The plasmid DNA, containing the IPD082Aa gene insert, was transformed into competent C41 E. coli cells for recombinant protein expression. E. coli cells were grown at 37° C. with carbenicillin or kanamycin selection to OD₆₀₀ equal to 0.7-0.8 and then 1 mM ITPG was added and further grown at 16° C. for 16 hours to induce protein expression. The E. coli expressed His-tagged proteins were purified by immobilized metal ion chromatography using Ni-NTA agarose (Qiagen, Germany) according to the manufacturer's protocols. Other IPD082 homologs were expressed in a similar manner except the gene sequences were synthesized.
(§2) The polynucleotides, SEQ ID NO: 33 and SEQ ID NO: 35 respectively, encoding the 38.2 kDa N-terminal fragment (IPD082Aa-1—SEQ ID NO: 34) and 20.5 kDa C-terminal fragment (IPD082Aa-2—SEQ ID NO: 36) of IPD082Aa, were also co-expressed (FIG. 11) in a pETDuet™-1 vector (EMD Millipore, a Life Science business of Merck KGaA, Frankfurter StraBe 250, 64293, Darmstadt, Germany). Similarly polynucleotides encoding the C-terminal fragments of the IPD082 homologs: IPD082Hb-2 (SEQ ID NO: 37); IPD082Ia-2 (SEQ ID NO: 39); IPD082Ic-2 (SEQ ID NO: 41); IPD082Ie-2 (SEQ ID NO: 43); IPD082Ib-2 (SEQ ID NO: 45); IPD082Hd-2 (SEQ ID NO: 47); and IPD082Hc-2 (SEQ ID NO: 49), were cloned as chimeric fusions with IPD082Aa-2 (SEQ ID NO: 35) in the pETDuet™-1 vector containing IPD082Aa-1 polynucleotide (SEQ ID NO: 33).

[2] = target: T2, IPD082Ic-2, C-terminal fragment of homolog IPD082Ic (Pseudomonas sp. S16-2)
T2 chain: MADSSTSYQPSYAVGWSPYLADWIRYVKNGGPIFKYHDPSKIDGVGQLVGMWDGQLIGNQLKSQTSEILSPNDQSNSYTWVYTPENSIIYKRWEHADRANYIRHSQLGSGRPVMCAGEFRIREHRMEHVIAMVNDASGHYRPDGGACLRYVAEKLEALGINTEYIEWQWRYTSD
Source text: as §1, §2

[3] = target: T3, IPD082Ie-2, C-terminal fragment of homolog IPD082Ie (Pseudomonas agarici)
T3 chain: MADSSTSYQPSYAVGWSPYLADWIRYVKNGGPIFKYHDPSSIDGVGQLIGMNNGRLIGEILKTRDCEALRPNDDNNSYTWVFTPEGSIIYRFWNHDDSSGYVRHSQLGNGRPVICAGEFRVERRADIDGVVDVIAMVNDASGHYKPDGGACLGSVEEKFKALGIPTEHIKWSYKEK
Source text: as §1, §2

[4] = target: T4, IPD082Hc-2, C-terminal fragment of homolog IPD082Hc (Pseudomonas corrugata)
T4 chain: T2 chain with Q55K, I68M, L155F, Y164H, T172A
Source text: as §1, §2

[5] = target: T5, IPD082Ia-2, C-terminal fragment of homolog IPD082Ia (Pseudomonas monteilii)
T5 chain: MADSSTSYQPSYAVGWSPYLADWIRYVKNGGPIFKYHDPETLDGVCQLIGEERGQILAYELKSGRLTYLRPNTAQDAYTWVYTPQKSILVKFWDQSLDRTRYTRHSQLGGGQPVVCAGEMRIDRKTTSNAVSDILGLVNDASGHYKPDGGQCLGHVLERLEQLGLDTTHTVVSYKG
Source text: as §1, §2

[6] = target: T6, IPD082Ib-2, C-terminal fragment of homolog IPD082Ib (Pseudomonas sp VLB120)
T6 chain: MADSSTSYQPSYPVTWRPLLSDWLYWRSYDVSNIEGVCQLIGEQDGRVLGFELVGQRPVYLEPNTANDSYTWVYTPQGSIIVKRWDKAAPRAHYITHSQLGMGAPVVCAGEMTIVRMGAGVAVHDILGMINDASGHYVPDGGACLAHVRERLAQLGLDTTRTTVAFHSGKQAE
Source text: as §1, §2

Measured: binding result

B1: IPD082Aa-1, N-terminal region of IPD082Aa (pETDuet-1 construct, N-6 His) (other)
chain: MQTTVSETLVSGSDPRLQVSMGNETANGRWDNPYAIQFTYSIAGRQFFYGQNLKTHYWFIQELLPGGKMGQETANGRWDNPYAVQFAFSVGGRQFFYGQNLETNYWFIQELLAGGKMGQETANGRWNNPYASQFAFSVGGRQFFYGQNLKTNYWFIQELLAGGKMGQETANGTLDGPFAVQFPFSVGGSQYFYGQNIKDRSWFIKELLAGGKVGKTTASGRWDNAYAVQFAYPAEQYGRQYFYGQNLDTNYWFVQELLPGGAMGEEIMNGRWGNPYATQFAYEQGGISYFYGQNQSSNYWFIQELLSDTEYTVRRLPLLDYSSSTSAAQQSAPGVCL
notes: Co-expressed in pETDuet-1 with untagged C-terminal fragments of IPD082 homologs; not shown: N-terminal 6xHis tag of the pETDuet-1 vector ('N-6 His for -1')
binds: all assays above

Reference: patent US20180325119A1 (PIONEER HI BRED INTERNATIONAL, published 2018)
